PMC5915679

What was measured:
[1] = target: hGW182 ABD (455–841) with motif-1 and motif-2 deleted (human) (UniProt Q8NDV7); experiment: SEC
[2] = target: hGW182 ABD (455–841) with motif-1 and the hook deleted (human) (UniProt Q8NDV7); experiment: SEC
[3] = target: hGW182 ABD (455–841) with motif-1 deleted (human) (UniProt Q8NDV7); experiment: SEC
[4] = target: hGW182 ABD (455–841) with motif-2 and the hook deleted (human) (UniProt Q8NDV7); experiment: SEC
[5] = target: hGW182 ABD (455–841) with the hook deleted (human) (UniProt Q8NDV7); experiment: SEC
[6] = target: hGW182 ABD (455–841), tandem tryptophans of motif-1 and the hook mutated to alanine (human) (UniProt Q8NDV7); experiment: pull-down
[7] = target: hGW182 ABD (455–841), tandem tryptophans of motif-2 and the hook mutated to alanine (human) (UniProt Q8NDV7); experiment: pull-down

stoichiometry N [1]: 1
stoichiometry N [2]: 1
stoichiometry N [3]: 2
stoichiometry N [4]: 1
stoichiometry N [5]: 2
percent reduction of binding against the wild-type ABD [6]: < 10%
percent reduction of binding against the wild-type ABD [7]: < 10%
Substance: human Argonaute-2 (from UniProt Q9UKV8 1-859) (natural protein)
